Consider one molecule from patent CN109021104A (SHANGHAI CHEMPARTNER CO LTD; GATEWAY BIOTECHNOLOGY SHANGHAI …, dated 2018).

The target of this experiment is T1, 人源PDGFRβ全长 (human PDGFRβ, full length, on cells) (human, UniProt P09619 33-1106).
T1 construct: whole, on cells; also called HEK293-hPDGFRβ稳定细胞株; 细胞表面的PDGFRβ
As to the kind of experiment: flow cytometry on HEK293-hPDGFRβ cells, Alexa488 secondary antibody.

T1 sequence (P09619 33-1106): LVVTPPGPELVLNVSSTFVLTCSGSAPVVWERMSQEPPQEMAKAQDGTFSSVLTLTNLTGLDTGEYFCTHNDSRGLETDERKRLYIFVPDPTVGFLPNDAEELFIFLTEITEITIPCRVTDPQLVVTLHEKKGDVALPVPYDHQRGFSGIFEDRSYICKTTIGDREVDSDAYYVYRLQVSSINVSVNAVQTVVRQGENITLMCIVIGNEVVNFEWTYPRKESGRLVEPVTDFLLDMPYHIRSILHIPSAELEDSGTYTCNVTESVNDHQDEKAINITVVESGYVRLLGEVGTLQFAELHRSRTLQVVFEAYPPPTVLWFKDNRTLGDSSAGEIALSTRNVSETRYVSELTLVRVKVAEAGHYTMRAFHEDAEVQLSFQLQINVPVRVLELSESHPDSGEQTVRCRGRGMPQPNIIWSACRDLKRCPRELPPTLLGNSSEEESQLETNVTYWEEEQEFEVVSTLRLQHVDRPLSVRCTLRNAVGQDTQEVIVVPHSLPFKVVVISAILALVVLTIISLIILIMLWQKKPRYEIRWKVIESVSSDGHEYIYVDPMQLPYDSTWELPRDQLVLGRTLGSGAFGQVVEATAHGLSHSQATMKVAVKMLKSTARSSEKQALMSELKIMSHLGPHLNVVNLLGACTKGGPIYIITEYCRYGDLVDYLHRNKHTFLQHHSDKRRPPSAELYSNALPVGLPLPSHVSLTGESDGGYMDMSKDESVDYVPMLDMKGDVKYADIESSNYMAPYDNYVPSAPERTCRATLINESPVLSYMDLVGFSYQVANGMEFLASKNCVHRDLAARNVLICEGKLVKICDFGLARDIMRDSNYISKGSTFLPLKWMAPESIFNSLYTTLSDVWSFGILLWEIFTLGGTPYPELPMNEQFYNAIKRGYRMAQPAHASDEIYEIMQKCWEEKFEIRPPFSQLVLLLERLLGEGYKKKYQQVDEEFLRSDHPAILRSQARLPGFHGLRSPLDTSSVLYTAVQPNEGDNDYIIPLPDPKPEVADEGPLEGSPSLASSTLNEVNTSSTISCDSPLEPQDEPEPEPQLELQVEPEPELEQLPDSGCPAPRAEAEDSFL

B1: 39E10E12B3 (antibody, V domains shown)
VH: EVQLVESGGGVVQPGRSLRLSCAASGFTFSSYGMHWVRQAPGKGLEWVAVIWYDGSNKYYADSVKGRFTISRDNSKNTLYLQMNSLRAEDTAVYYCAVTGDVDYWGQGTLVTVSS
notes: Heavy-chain-only monoclonal antibody (no light chain), purified from a hybridoma made from HCAb transgenic mice; also called 重链抗体39E10E12B3; PDGFRβ抗体
As for B1, the binding result is on record as “binds”.
